Results from PMC11218997, “Human cytomegalovirus deploys molecular mimicry to recruit VPS4A to sites of virus assembly” (PLOS Pathogens, 2024).

B1: HHV6 pUL44: HA-tagged pUL71 homologue from HHV6 (pU44) (protein)
chain: MGNCFRRLSLFGQPTQAKYEMLCSSDDLETEELTYFLDMTYKDFGVYQNDIISHQKDTETMKTLLGLLPMYKKTKLRHTVMERCLSNCPNHVKDALCVELMKAEKILQTMDVVFMKTLIGEFSMCTDNLNQLLNKFATDQSTLSDVEKINSLIEIDGENSKRLLVELDPILHEETGLYQALPNVVTEAPSEKVKSIRVESEGESV
modifications: left off: HA, C-terminal, kept
B2: HSV-1 pUL51: HA-tagged pUL71 homologue from HSV-1 (pUL51) (protein)
chain: MASLLGAICGWGARPEEQYEMIRAAVPPSEAEPRLQEALAVVNALLPAPITLDDALGSLDDTRRLVKARALARTYHACMVNLERLARHHPGFEAPTIDGAVAAHQDKMRRLADTCMATILQMYMSVGAADKSADVLVSQAIRSMAESDVVMEDVAIAERALGLSAFGVAGGTRSGGIGVTEAPSLGHPHTPPPEVTLAPAARNGDALPDPKPESCPRVSVPRPTASPTAPRPGPSRAAPCVLGQ
modifications: left off: HA, C-terminal, kept
B3: YC-VPS4A-FLAG: VPS4A-FLAG fused to the C-terminal half of Citrine (protein)
chain: MTTSTLQKAIDLVTKATEEDKAKNYEEALRLYQHAVEYFLHAIKYEAHSDKAKESIRAKCVQYLDRAEKLKDYLRSKEKHGKKPVKENQSEGKGSDSDSEGDNPEKKKLQEQLMGAVVMEKPNIRWNDVAGLEGAKEALKEAVILPIKFPHLFTGKRTPWRGILLFGPPGTGKSYLAKAVATEANNSTFFSVSSSDLMSKWLGESEKLVKNLFELARQHKPSIIFIDEVDSLCGSRNENESEAARRIKTEFLVQMQGVGNNNDGTLVLGATNIPWVLDSAIRRRFEKRIYIPLPEEAARAQMFRLHLGSTPHNLTDANIHELARKTEGYSGADISIIVRDSLMQPVRKVQSATHFKKVCGPSRTNPSMMIDDLLTPCSPGDPGAMEMTWMDVPGDKLLEPVVCMSDMLRSLATTRPTVNADDLLKVKKFSEDFGQES
modifications: left off: Citrine residues 156-239 with A206K (YC), N-terminal, kept | FLAG, C-terminal, kept
B4: YC-VPS4A-FLAG-L64D (protein)
chain: MTTSTLQKAIDLVTKATEEDKAKNYEEALRLYQHAVEYFLHAIKYEAHSDKAKESIRAKCVQYDDRAEKLKDYLRSKEKHGKKPVKENQSEGKGSDSDSEGDNPEKKKLQEQLMGAVVMEKPNIRWNDVAGLEGAKEALKEAVILPIKFPHLFTGKRTPWRGILLFGPPGTGKSYLAKAVATEANNSTFFSVSSSDLMSKWLGESEKLVKNLFELARQHKPSIIFIDEVDSLCGSRNENESEAARRIKTEFLVQMQGVGNNNDGTLVLGATNIPWVLDSAIRRRFEKRIYIPLPEEAARAQMFRLHLGSTPHNLTDANIHELARKTEGYSGADISIIVRDSLMQPVRKVQSATHFKKVCGPSRTNPSMMIDDLLTPCSPGDPGAMEMTWMDVPGDKLLEPVVCMSDMLRSLATTRPTVNADDLLKVKKFSEDFGQES
modifications: left off: Citrine residues 156-239 with A206K (YC), N-terminal, kept | FLAG, C-terminal, kept

Legend:
[1] = system: VPS4A-FLAG; assay: Co-transfection localisation, immunofluorescence, COS-7 cells; format: cell-based, human; settings: COS-7, 20–24 h post-transfection
From the text: (§1) All eukaryotic expression plasmids for pUL71 and pUL71 homologues were generated in the backbone of pEF1/Myc-His C expression vector (Invitrogen) by cloning using restriction enzymes. The open reading frame (ORF) of full-length UL71 was amplified from the HCMV wild-type BAC TB40-BAC4 using the primers ex_71_for and ex_71_rev and was the basis for all further UL71 mutants. C-terminally truncated variants UL71_1–326, UL71_1–320 and UL71_1–314 were generated using primers ex_71_for and respective reverse primers UL71_1–326_rev, UL71_1–320_rev and UL71_1–314_rev. Point mutants PPAA (P315A+P318A), V317D, P315A and P318A of the vMIM2 of pUL71 were generated by fusion PCR. For the example of the PPAA mutant, a first fragment UL71_1-326-PPAA was amplified with the primers ex_71_for and UL71 _1–326_P315A/P318A_rev. A second fragment UL71_320–361 was amplified by using primers UL71_1–361_P315A/P318A-for and ex_71_rev. The final PCR product UL71-PPAA was amplified by using fragment UL71_1-326-PPAA as template and ex_71_for and fragment UL71_320–361 as primers. UL71-V317D, UL71-P315A and UL71-P318A were generated similarly manner using the primers UL71 _1–326_V317D_rev, UL71 _1–326_P315A_rev and UL71 _1–326_P318A_rev, respectively, to generate the first fragment. […]

[2] = system: VPS4A-FLAG; assay: Anti-FLAG co-immunoprecipitation from co-transfected HEK293FT cells; format: cell-based, human; settings: 48 h post-transfection, immunoblot
From the text: as §1

[3] = system: pUL71 (YN fusion, TB71-YN); assay: Bimolecular fluorescence complementation in TB71-YN infected MRC-5 cells; format: cell-based, HCMV; settings: MRC-5 infected with TB71-YN, MOI 1, 5 dpi
From the text: HCMV strains AD169 [92], Toledo [93], Merlin [94], VR1814 [95] and TB40/E [96] and two clinical isolates (isolates 19 and 20, kindly provided by C. Sinzger, Ulm University Hospital, Germany) were used in this study. This panel was chosen as it covers the most commonly used cell culture passaged strains and two isolates that grow highly cell associated. In addition, bacmid derived viruses were used. Reconstituted virus from bacterial artificial chromosome (BAC) clone TB40-BAC4 of the endotheliotropic HCMV strain TB40/E (accession number EF999921.1.) served as wild type virus (WT) in this study. Generation and propagation of recombinant viruses, TBstop71 and TBrev71 have been described elsewhere. […] The recombinant virus TB71-YN used for bimolecular fluorescence complementation (BiFC) assay, was generated by markerless BAC mutagenesis from BAC clone TB40-BAC4 by inserting the sequences corresponding to a (GGGGS)2-linker sequence, the c-myc-tag and the N-terminal fragment of the yellow fluorescent protein (YFP) variant Citrine, comprising amino acids 1–173 (YN), before the stop codon of the UL71 open reading frame. […]

| Molecule | recruitment of VPS4A-FLAG to juxtanuclear compartments [1] | co-precipitation by VPS4A-FLAG [2] | Citrine fluorescence (BiFC) [3] |
| --- | --- | --- | --- |
| B1 | it is recruited | bind efficiently to co-transfected VPS4A-FLAG | – |
| B2 | not recruited to juxtanuclear membranes | do not | – |
| B3 | – | – | Citrine fluorescence was detected |
| B4 | – | – | Citrine fluorescence was detected |
